What was measured:
[1] = target: T1, human C4b (human) (UniProt P0C0L5)
T1 sequence: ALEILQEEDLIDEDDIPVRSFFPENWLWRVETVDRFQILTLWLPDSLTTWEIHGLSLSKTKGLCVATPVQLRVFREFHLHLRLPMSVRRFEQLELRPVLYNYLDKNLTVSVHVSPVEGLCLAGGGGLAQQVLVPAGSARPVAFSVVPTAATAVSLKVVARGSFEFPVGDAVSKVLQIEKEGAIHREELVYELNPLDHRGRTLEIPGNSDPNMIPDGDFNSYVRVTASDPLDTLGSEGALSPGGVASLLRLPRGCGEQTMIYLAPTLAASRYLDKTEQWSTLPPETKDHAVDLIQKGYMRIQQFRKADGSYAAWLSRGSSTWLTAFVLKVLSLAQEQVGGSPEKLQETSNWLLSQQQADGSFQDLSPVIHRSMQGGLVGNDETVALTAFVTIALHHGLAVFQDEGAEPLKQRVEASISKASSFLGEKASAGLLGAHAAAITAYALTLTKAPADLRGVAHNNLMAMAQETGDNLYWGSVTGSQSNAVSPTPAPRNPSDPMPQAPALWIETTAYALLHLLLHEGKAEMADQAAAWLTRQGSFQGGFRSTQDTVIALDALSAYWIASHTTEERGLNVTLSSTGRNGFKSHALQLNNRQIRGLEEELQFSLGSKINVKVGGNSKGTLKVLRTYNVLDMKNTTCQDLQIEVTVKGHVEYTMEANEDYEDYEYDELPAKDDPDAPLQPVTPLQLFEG

[2] = target: soluble human C3b (human) (UniProt P01024)

| Substance | C4b Screen Ref Fold (fold vs CFI-HSA wild type) [1] | iC3b Screen Ref Fold (fold vs CFI-HSA wild type) [2] |
| --- | --- | --- |
| CFI-HSA K424R (enzyme) | 0.32 | 0.97 |
| CFI-HSA K424S (enzyme) | -0.1 | 0.29 |
| CFI-HSA K424T (enzyme) | 0.03 | 0.13 |
| CFI-HSA K424V (enzyme) | 0.29 | 0.89 |
| CFI-HSA K424W (enzyme) | 0.25 | 1.52 |
| CFI-HSA K424Y (enzyme) | 0.42 | 0.95 |
| CFI-HSA L73G (enzyme) | 0.17 | 0.3 |
| CFI-HSA L76G (enzyme) | 0.07 | 0.5 |
| CFI-HSA N531G; D425R; E530Y (enzyme) | 2.71 | 2.05 |
| CFI-HSA N531G; E457G; E461Q; R557A (enzyme) | 4.46 | 0.93 |
| CFI-HSA N531G; E457G; E461Q; R557K (enzyme) | 4.69 | 1.81 |
| CFI-HSA N531G; E457G; E461Q; ΔC-term (Δ558-PFISQYNV (SEQ ID NO: 14)-565) (enzyme) | 3.57 | 0.5 |
| CFI-HSA N531G; E530Y (enzyme) | 3.41 | 2.48 |
| CFI-HSA N531G; P535A; R557A (enzyme) | 3.98 | 0.57 |
| CFI-HSA N531G; P535A; R557K (enzyme) | 4.13 | 1.65 |
| CFI-HSA N531G; P535A; ΔC-term (Δ558-PFISQYNV (SEQ ID NO: 14)-565) (enzyme) | 0.96 | 0.24 |
| CFI-HSA P535G; E530Y (enzyme) | 0.11 | 0.22 |
| CFI-HSA P538G (enzyme) | 0.07 | -0.01 |

| Substance | C4b Screen Ref Fold (fold vs CFI-HSA wild type) [1] | iC3b Screen Ref Fold (fold vs CFI-HSA wild type) [2] |
| --- | --- | --- |
| CFI-HSA Q69G (enzyme) | 0.14 | 1.17 |
| CFI-HSA R327G (enzyme) | 0.26 | 0.5 |
| CFI-HSA R365A (enzyme) | 0.56 | 0.5 |
| CFI-HSA R365D (enzyme) | 0.02 | 0.03 |
| CFI-HSA R365E (enzyme) | -0.06 | 0.02 |
| CFI-HSA R365F (enzyme) | 0.23 | 0.64 |
| CFI-HSA R365G (enzyme) | 0.35 | 0.16 |
| CFI-HSA R365H (enzyme) | 0.31 | 0.43 |
| CFI-HSA R365I (enzyme) | 1.16 | 0.3 |
| CFI-HSA R365K (enzyme) | 0.39 | 1.01 |
| CFI-HSA R365L (enzyme) | 0.6 | 0.16 |
| CFI-HSA R365M (enzyme) | 0.13 | 0.43 |
| CFI-HSA R365N (enzyme) | 0.1 | 0.04 |
| CFI-HSA R365P (enzyme) | 0.18 | 0.07 |
| CFI-HSA R365Q (enzyme) | 0.18 | 0.64 |
| CFI-HSA R365S (enzyme) | 0.18 | 0.6 |
| CFI-HSA R365T (enzyme) | 0.96 | 0.56 |
| CFI-HSA R365V (enzyme) | 1.25 | 0.43 |

— patent US20230038638A1, “COMPLEMENT FACTOR I-RELATED COMPOSITIONS AND METHODS” (published 2023)
